Patent publication US20220041999A1 (NEOGENE THERAPEUTICS B V, published 2022)
Positions count from the first letter of the chain named. Blank lines part the entries; values can stand above or below the molecule they belong to.

Key:
FOS^MUT3AA-mDHFR_B = target: T1, FOS^MUT3AA-mDHFR_B; test: cell-based or functional assay
T1 chain: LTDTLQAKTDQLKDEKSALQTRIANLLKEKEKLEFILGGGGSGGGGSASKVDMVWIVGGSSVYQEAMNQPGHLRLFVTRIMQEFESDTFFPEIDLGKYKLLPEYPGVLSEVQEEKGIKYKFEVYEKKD

sFOS^MUT8AA-mDHFR_B = target: T2, sFOS^MUT8AA-mDHFR_B; test: cell-based or functional assay
T2 chain: T1 chain with T2R, E15N, K16Q, E29K, K30Q

FOS^MUT4AA-mDHFR_B [1] = target: T3, FOS^MUT4AA-mDHFR_B; test: cell-based or functional assay
T3 chain: T1 chain with E29K

sFOS-mDHFR_B = target: T4, sFOS-mDHFR_B (murine); test: cell-based or functional assay
T4 chain: T1 chain with K8E, K13E, R22E

FOS-mDHFRmt_B-2A = target: T5, FOS-mDHFRmt_B-2A; test: cell-based or functional assay
T5 chain: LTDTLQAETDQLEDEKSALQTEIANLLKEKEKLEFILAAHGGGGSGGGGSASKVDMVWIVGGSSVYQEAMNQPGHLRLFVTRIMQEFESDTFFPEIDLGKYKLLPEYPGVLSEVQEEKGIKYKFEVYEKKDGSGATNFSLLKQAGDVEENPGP

FOS-mDHFRmt_B = target: T6, FOS-mDHFRmt_B; test: cell-based or functional assay
T6 chain: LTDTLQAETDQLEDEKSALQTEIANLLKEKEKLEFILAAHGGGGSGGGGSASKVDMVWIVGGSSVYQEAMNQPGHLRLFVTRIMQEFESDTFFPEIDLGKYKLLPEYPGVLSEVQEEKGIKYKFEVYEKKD

FOS^WT-mDHFR_B [2] = target: T7, FOS^WT-mDHFR_B; test: cell-based or functional assay
T7 chain: T6 chain

FOS^MUT4AA-mDHFR_B [3] = target: T3, FOS^MUT4AA-mDHFR_B; test: split-DHFR complementation, 100 nM MTX 10 days, FACS
Source text: (§1) FIGS. 44A-44D show the results of MTX selection of double engineered BC76 T cells. Activated human primary T cells isolated from a buffy coat, BC76, were double-infected with retroviral vectors encoding an MTX-resistant murine DHFR^FS mutant (mDHFR) split into an N-terminal and C-terminal protein half (vector A and B), fused to heterodimerizing JUN-FOS leucine zippers. JUN^WT depicts a wildtype JUN leucine zipper, FOS^WT depicts a wildtype FOS leucine zipper, JUN^MUT3AA depicts a mutant JUN leucine zipper containing three acidic amino acids from FOS, FOS^MUT3AA depicts a mutant FOS leucine zipper containing three basic amino acids from JUN, JUN^MUT4AA depicts a mutant JUN leucine zipper containing four acidic amino acids from FOS, FOS^MUT4AA depicts a mutant FOS leucine zipper containing four basic amino acids from JUN. Vector A and B also encoded a Ly6G and CD90.2 transduction marker, respectively. Starting at 4 days post transduction, cells were either left untreated (row 1), or were treated with 100 nM MTX for 10 days (row 2), after which enrichment of double transduced cells was measured by FACS analysis.

FOS^WT-mDHFR_B [4] = target: T7, FOS^WT-mDHFR_B; test: as above
Source text: as §1

B1: JUN-mDHFRmt_A-2A (other)
chain: RIARLEEKVKTLKAQNSELASTANMLREQVAQLKQKVMNHGGGGSGGGGSMVRPLNCIVAVSQNMGIGKNGDFPWPPLRNESKYFQRMTTTSSVEGKQNLVIMGRKTWFSIPEKNRPLKDRINIVLSRELKEPPRGAHFLAKSLDDALRLIEQPELGSGATNFSLLKQAGDVEENPGP
- fold enrichment of double transduced T cells (FACS), BC45, 25 nM MTX 4 days (FOS-mDHFRmt_B-2A): 5.3 fold
- fold enrichment of double transduced T cells (FACS), BC45, 50 nM MTX 4 days (FOS-mDHFRmt_B-2A): 10.5 fold
- fold enrichment of double transduced T cells (FACS), BC45, further 100 nM MTX 3 days, row 2 (FOS-mDHFRmt_B-2A): 15.5 fold
- fold enrichment of double transduced T cells (FACS), BC45, further 100 nM MTX 3 days, row 3 (FOS-mDHFRmt_B-2A): 18.9 fold
- fold enrichment of double transduced T cells (FACS), BC46, 25 nM MTX 4 days (FOS-mDHFRmt_B-2A): 3.6 fold
- fold enrichment of double transduced T cells (FACS), BC46, 50 nM MTX 4 days (FOS-mDHFRmt_B-2A): 8.3 fold
- fold enrichment of double transduced T cells (FACS), BC46, further 100 nM MTX 3 days, row 2 (FOS-mDHFRmt_B-2A): 10.4 fold
- fold enrichment of double transduced T cells (FACS), BC46, further 100 nM MTX 3 days, row 3 (FOS-mDHFRmt_B-2A): 16.9 fold

B2: JUN-mDHFRmt_A (other)
chain: RIARLEEKVKTLKAQNSELASTANMLREQVAQLKQKVMNHGGGGSGGGGSMVRPLNCIVAVSQNMGIGKNGDFPWPPLRNESKYFQRMTTTSSVEGKQNLVIMGRKTWFSIPEKNRPLKDRINIVLSRELKEPPRGAHFLAKSLDDALRLIEQPEL
- fold enrichment of double transduced T cells (FACS), BC45, 50 nM MTX 4 days (FOS-mDHFRmt_B): 4.4 fold
- fold enrichment of double transduced T cells (FACS), BC45, further 100 nM MTX 3 days, row 2 (FOS-mDHFRmt_B): 11.3 fold
- fold enrichment of double transduced T cells (FACS), BC45, further 100 nM MTX 3 days, row 3 (FOS-mDHFRmt_B): 94 fold
- fold enrichment of double transduced T cells (FACS), BC46, 50 nM MTX 4 days (FOS-mDHFRmt_B): 6.2 fold
- fold enrichment of double transduced T cells (FACS), BC46, further 100 nM MTX 3 days, row 2 (FOS-mDHFRmt_B): 4 fold
- fold enrichment of double transduced T cells (FACS), BC46, further 100 nM MTX 3 days, row 3 (FOS-mDHFRmt_B): 23.2 fold

B3: JUN^WT-mDHFR_A (other)
chain: B2 chain
- fold enrichment of double transduced T cells (FACS), BC54, 100 nM MTX 2 days (FOS^MUT3AA-mDHFR_B): 1.9 fold
- fold enrichment of double transduced T cells (FACS), BC76, 100 nM MTX 10 days (FOS^MUT3AA-mDHFR_B): 3.1 fold
- fold enrichment of double transduced T cells (FACS), donor B, 100 nM MTX 4 days (FOS^MUT3AA-mDHFR_B): 4 fold
- fold enrichment of double transduced T cells (FACS), BC76, 100 nM MTX 10 days (FOS^MUT4AA-mDHFR_B [1]): 1.4 fold
- fold enrichment of double transduced T cells (FACS), BC54, 100 nM MTX 2 days (FOS^WT-mDHFR_B [2]): 6.8 fold
- fold enrichment of double transduced T cells (FACS), BC76, 100 nM MTX 10 days (FOS^WT-mDHFR_B [2]): 132 fold
- fold enrichment of double transduced T cells (FACS), donor B, 100 nM MTX 4 days (FOS^WT-mDHFR_B [2]): 15.5 fold
- binding result (FOS^MUT4AA-mDHFR_B [3]): no binding

B4: JUN^MUT3AA-mDHFR_A (other)
chain: RIARLEEEVKTLEAQNSELASTANMLEEQVAQLKQKVGGGGSGGGGSMVRPLNCIVAVSQNMGIGKNGDFPWPPLRNESKYFQRMTTTSSVEGKQNLVIMGRKTWFSIPEKNRPLKDRINIVLSRELKEPPRGAHFLAKSLDDALRLIEQPEL
- fold enrichment of double transduced T cells (FACS), BC54, 100 nM MTX 2 days (FOS^MUT3AA-mDHFR_B): 5.6 fold
- fold enrichment of double transduced T cells (FACS), BC76, 100 nM MTX 10 days (FOS^MUT3AA-mDHFR_B): 72 fold
- fold enrichment of double transduced T cells (FACS), donor B, 100 nM MTX 4 days (FOS^MUT3AA-mDHFR_B): 10.5 fold
- fold enrichment of double transduced T cells (FACS), shorter zippers, donor A, 100 nM MTX 6 days (FIG. 49) (FOS^MUT3AA-mDHFR_B): 49 fold
- fold enrichment of double transduced T cells (FACS), shorter zippers, donor B, 100 nM MTX 6 days (FIG. 49) (FOS^MUT3AA-mDHFR_B): 6.6 fold
- fold enrichment of double transduced T cells (FACS), BC54, 100 nM MTX 2 days (FOS^WT-mDHFR_B [2]): 3.9 fold
- fold enrichment of double transduced T cells (FACS), BC76, 100 nM MTX 10 days (FOS^WT-mDHFR_B [2]): 19 fold
- fold enrichment of double transduced T cells (FACS), donor B, 100 nM MTX 4 days (FOS^WT-mDHFR_B [2]): 11.2 fold
- fold enrichment of double transduced T cells (FACS), shorter zippers, donor A, 100 nM MTX 6 days (FIG. 49) (sFOS-mDHFR_B): 3.2 fold
- fold enrichment of double transduced T cells (FACS), shorter zippers, donor B, 100 nM MTX 6 days (FIG. 49) (sFOS-mDHFR_B): 1.5 fold

B6: JUN^MUT4AA-mDHFR_A (other)
chain: B4 chain with K34E
- fold enrichment of double knock-in T cells (FACS), BC78, 100 nM MTX 6 days (FOS^MUT4AA-mDHFR_B [1]): 54 fold
- fold enrichment of double transduced T cells (FACS), BC76, 100 nM MTX 10 days (FOS^MUT4AA-mDHFR_B [1]): 70 fold
- fold enrichment of double transduced T cells (FACS), shorter zippers, donor A, 100 nM MTX 6 days (FIG. 50) (FOS^MUT4AA-mDHFR_B [1]): 39 fold
- fold enrichment of double transduced T cells (FACS), shorter zippers, donor B, 100 nM MTX 6 days (FIG. 50) (FOS^MUT4AA-mDHFR_B [1]): 4.7 fold
- fold enrichment of double transduced T cells (FACS), BC76, 100 nM MTX 10 days (FOS^WT-mDHFR_B [2]): 2.6 fold
- fold enrichment of double transduced T cells (FACS), shorter zippers, donor A, 100 nM MTX 6 days (FIG. 50) (sFOS-mDHFR_B): 2.2 fold
- fold enrichment of double transduced T cells (FACS), shorter zippers, donor B, 100 nM MTX 6 days (FIG. 50) (sFOS-mDHFR_B): 1.5 fold
- binding result (FOS^WT-mDHFR_B [4]): no binding

Second part, the molecule after the results:

- fold enrichment of double transduced T cells (FACS), shorter zippers, donor A, 100 nM MTX 6 days (FIG. 49) (FOS^MUT3AA-mDHFR_B): 1.7 fold
- fold enrichment of double transduced T cells (FACS), shorter zippers, donor B, 100 nM MTX 6 days (FIG. 49) (FOS^MUT3AA-mDHFR_B): 1.4 fold
- fold enrichment of double transduced T cells (FACS), 100 nM MTX 6 days (FIGS. 51A-51B) (sFOS^MUT8AA-mDHFR_B): 1.5 fold
- fold enrichment of double transduced T cells (FACS), shorter zippers, donor A, 100 nM MTX 6 days (FIG. 50) (FOS^MUT4AA-mDHFR_B [1]): 1.5 fold
- fold enrichment of double transduced T cells (FACS), shorter zippers, donor B, 100 nM MTX 6 days (FIG. 50) (FOS^MUT4AA-mDHFR_B [1]): 1.2 fold
- fold enrichment of double transduced T cells (FACS), 100 nM MTX 6 days (FIGS. 51A-51B) (sFOS-mDHFR_B): 12.3 fold
- fold enrichment of double transduced T cells (FACS), shorter zippers, donor A, 100 nM MTX 6 days (FIG. 49) (sFOS-mDHFR_B): 66 fold
- fold enrichment of double transduced T cells (FACS), shorter zippers, donor B, 100 nM MTX 6 days (FIG. 49) (sFOS-mDHFR_B): 7.6 fold
Molecule: sJUN-mDHFR_A

- fold enrichment of double transduced T cells (FACS), 100 nM MTX 6 days (FIGS. 51A-51B) (sFOS^MUT8AA-mDHFR_B): 2.2 fold
- fold enrichment of double transduced T cells (FACS), 100 nM MTX 6 days (FIGS. 51A-51B) (sFOS-mDHFR_B): 0.9 fold
B5: sJUN^MUT8AA-mDHFR_A (other)
chain: B4 chain with R1T, Q15K, N16E, Q29K, K34E
